# According to patent US7662384B2, “Use of anti-α5β1 antibodies to inhibit cancer cell proliferation” (Facet Biotech Corporation, priority 2004, dated 2010):
# System: refractory solid tumors
# Test: Phase I extension study: tumor response
# Assay type: in vivo, human
# Procedure: A two-part Phase I open-label study was carried to determine the effects of treatment with up to 6 dose levels, from 0.5 mg/kg to 15.0 mg/kg of M200 (volociximab) in 21 human patients with a variety of refractory solid tumor types. The total duration of treatment for the first part was 6 weeks with physical assessments through 45 days after the last dose.
# Patient evaluations during the study included the following: • a. Screening (within 14 days of study entry) of: medical history and physical examination, ECOG performance status, routine chemistry panel, complete blood count (CBC) with differential and platelets, sensitive C-reactive protein (CRP), urinalysis with microscopic analysis (UA/micro), electrocardiogram (ECG), chest radiograph (CXR), disease-directed body CT or MRI, urine pregnancy test within 48 hours prior to dosing, and coagulation studies (prothrombin [PT] and partial thromboplastin time [PTT]), anti-M200 antibodies (i.e., to detect cross-reactive HAMA or HACA) for patients who previously received murine or chimeric antibodies, head CT for patients with tumors that commonly metastasize to brain or CNS, and, in some patients, a biopsy to evaluate tumor vessel vascularity. • b. On-study laboratory evaluations: routine chemistry panel, urate, serum amylase, CBC with differential and platelets, UA/micro. • c. Routine disease-directed radiographic imaging (e.g., CT scanning) before and after treatment with M200 was used to evaluate tumor response using uni-dimensional, RECIST criteria. Target lesions were selected on the basis of their size (lesions with the longest diameter (LD)) and their suitability for accurate repetitive measurements (either by imaging techniques or clinically). A sum of the LD for all target lesions was calculated and reported as the baseline sum LD. The baseline sum LD was used as reference by which to characterize the objective tumor response. The following response criteria for the target lesions was used to assess the best overall response. • Complete Response (CR): Disappearance of all target lesions confirmed by repeat imaging 25 to 28 days after CR first documented. • Partial Response (PR): At least a 30% decrease in the sum of LD of target lesions, taking as reference the baseline sum LD, confirmed by repeat imaging 25 to 28 days after PR first documented. • Stable Disease (SD): Neither sufficient shrinkage to qualify for PR nor sufficient increase to qualify for PD, taking as references the smallest sum LD. • Progressive Disease (PD): At least a 20% increase in the sum of LD of target lesions, taking as reference the smallest sum LD recorded since treatment started, or the appearance of one or more new lesions. • d. Blood drawn for serum PK measurements, immunogenicity assays (anti-M200 antibodies), vascular growth factors, and measurement of bound and unbound α5β1 on peripheral blood monocytes. • e. A 3-mm punch biopsy of superficial tumor metastasis was obtained and frozen after the last treatment with M200 from patients who consented (not required for enrollment) to the procedure. This biopsy specimen could be used evaluate tumor vessel vascularity following treatment with M200.
# One of these patients with renal cell cancer (RCC) in the 15.0 mg/kg cohort achieved a partial response.
molecule,measurement,setting,value
"M200: chimeric IgG4 anti-α5β1 antibody derived from IIA1; generic name volociximab (antibody, V domains shown, chimeric antibody, chimeric IgG4 anti-α5β1 antibody derived from IIA1; generic name volociximab) VH: MAVLGLLLCLVTFPSCVLSQVQLKESGPGLVAPSQSLSITCTISGFSLTDYGVHWVRQPPGKGLEWLVVIWSDGSSTYNSALKSRMTIRKDNSKSQVFLIMNSLQTDDSAMYYCARHGTYYGMTTTGDALDYWGQGTSVTVSS VL: MDFQVQIFSFLLISASVIMSRGQIVLTQSPAIMSASLGERVTMTCTASSSVSSNYLHWYQQKPGSAPNLWIYSTSNLASGVPARFSGSGSGTSYSLTISSMEAEDAATYYCHQYLRSPPTFGGGTKLEIKDMSVDMSV",Best Response Outcome,"2.5 mg/kg, 1 patient, NSCLC",SD (SD defined as stabilization for ≧16 weeks (112 days))
same,Time to Progression,"2.5 mg/kg, 1 patient, NSCLC, includes 43 days on dose escalation study",129 days
same,Best Response Outcome,"5 mg/kg, 1 patient, HCC",SD (SD defined as stabilization for ≧16 weeks (112 days))
same,Time to Progression,"5 mg/kg, 1 patient, HCC, includes 43 days on dose escalation study",122 days
same,Time to Progression,"10 mg/kg, 1 patient, CRC, includes 43 days on dose escalation study",70 days
same,Best Response Outcome,"10 mg/kg, 1 patient, PARO",SD (SD defined as stabilization for ≧16 weeks (112 days))
same,Time to Progression,"10 mg/kg, 1 patient, PARO, includes 43 days on dose escalation study",143 days
same,Best Response Outcome,"15 mg/kg, 1 patient, MEL",SD (SD defined as stabilization for ≧16 weeks (112 days))
same,Time to Progression (Days),"15 mg/kg, 1 patient, MEL, on study, includes 43 days on dose escalation study",172+ (on Study) Days
same,Time to Progression,"15 mg/kg, 1 patient, RCC, includes 43 days on dose escalation study",214 days
same,patients exhibiting stable disease (SD) or better response,of the 6 patients in the extension study,5 patients
